US20060270591A1, “Androgen receptor coregulators” (priority 2002, published 2006)

T1: PR (Homo sapiens, UniProt P06401)
T1 construct: expressed in transfected cells; host or cells: DU145, PC-3
T1 sequence (P06401 1-933): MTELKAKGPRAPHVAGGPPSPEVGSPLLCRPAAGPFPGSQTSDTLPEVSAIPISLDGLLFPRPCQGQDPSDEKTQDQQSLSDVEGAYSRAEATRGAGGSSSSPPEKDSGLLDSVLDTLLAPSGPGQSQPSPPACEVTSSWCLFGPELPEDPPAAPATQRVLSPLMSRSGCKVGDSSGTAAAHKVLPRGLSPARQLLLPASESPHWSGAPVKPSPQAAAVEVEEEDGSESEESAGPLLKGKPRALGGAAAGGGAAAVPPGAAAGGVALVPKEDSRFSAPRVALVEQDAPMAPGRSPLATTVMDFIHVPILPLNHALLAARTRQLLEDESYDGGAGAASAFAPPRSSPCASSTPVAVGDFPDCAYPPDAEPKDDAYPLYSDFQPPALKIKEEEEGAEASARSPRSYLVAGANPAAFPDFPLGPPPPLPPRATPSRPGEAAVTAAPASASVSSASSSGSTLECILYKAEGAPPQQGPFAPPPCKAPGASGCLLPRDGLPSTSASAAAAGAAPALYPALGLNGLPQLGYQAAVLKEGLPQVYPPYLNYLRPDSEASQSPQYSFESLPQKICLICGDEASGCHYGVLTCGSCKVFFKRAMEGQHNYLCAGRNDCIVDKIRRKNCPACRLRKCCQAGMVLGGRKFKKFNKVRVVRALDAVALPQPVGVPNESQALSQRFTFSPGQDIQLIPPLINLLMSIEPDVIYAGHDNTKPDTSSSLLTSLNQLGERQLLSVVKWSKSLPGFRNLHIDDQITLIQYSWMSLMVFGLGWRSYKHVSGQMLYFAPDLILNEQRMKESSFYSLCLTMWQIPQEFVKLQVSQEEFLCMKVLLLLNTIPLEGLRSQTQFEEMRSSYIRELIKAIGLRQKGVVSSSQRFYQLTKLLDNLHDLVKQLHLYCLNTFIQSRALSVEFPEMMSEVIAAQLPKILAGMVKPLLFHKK

T2: ER (Homo sapiens, UniProt P03372)
T2 construct: expressed in transfected cells; host or cells: DU145
T2 sequence (P03372 1-595): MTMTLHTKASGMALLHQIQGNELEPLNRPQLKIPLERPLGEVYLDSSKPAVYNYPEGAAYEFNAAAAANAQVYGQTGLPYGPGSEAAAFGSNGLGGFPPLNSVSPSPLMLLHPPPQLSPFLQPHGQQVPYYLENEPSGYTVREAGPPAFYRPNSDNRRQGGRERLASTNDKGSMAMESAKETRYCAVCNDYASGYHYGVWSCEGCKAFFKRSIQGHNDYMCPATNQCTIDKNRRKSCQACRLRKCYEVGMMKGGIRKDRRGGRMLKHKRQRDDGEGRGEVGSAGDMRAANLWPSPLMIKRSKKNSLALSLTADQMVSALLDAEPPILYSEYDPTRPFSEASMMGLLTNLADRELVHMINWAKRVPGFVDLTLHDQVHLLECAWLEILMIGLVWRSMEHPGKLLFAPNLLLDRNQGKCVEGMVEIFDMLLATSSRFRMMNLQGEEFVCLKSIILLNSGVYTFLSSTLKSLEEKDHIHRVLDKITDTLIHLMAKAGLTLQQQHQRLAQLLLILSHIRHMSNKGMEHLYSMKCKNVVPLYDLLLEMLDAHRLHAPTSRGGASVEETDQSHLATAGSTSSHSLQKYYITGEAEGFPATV

B1: C′-ARA54: C-terminal region (amino acids 361-474) of ARA54 (protein)
chain: RNEYLQADEANKRLLDQRYGKRVIQKALEEMESKEWLEKNSKSCPCCGTPIEKLDGCNKMTCTGCMQYFCWICMGSLSRANPYKHFNDPGSPCFNRLFYAVDVDDDIWEDEVED
modifications: Homo sapien
notes: C-terminal region (amino acids 361-474) of ARA54
B2: ARA54: 54 kDa protein that interacts with AR in an androgen-dependent manner; AR coactivator (protein)
chain: MSSEDREAQEDELLALASIYDGDEFRKAESVQGGETRIYLDLPQNFKIFVSGNSNECLQNSGFEYTICFLPPLVLNFELPPDYPSSSPPSFTLSGKWLSPTQLSALCKHLDNLWEEHRGSVVLFAWMQFLKEETLAYLNIVSPFELKIGSQKKVQRRTAQASPNTELDFGGAAGSDVDQEEIVDERAVQDVESLSNLIQEILDFDQAQQIKCFNSKLFLCSICFCEKLGSECMYFLECRHVYCKACLKDYFEIQIRDGQVQCLNCPEPKCPSVATPGQVKELVEAELFARYDRLLLQSSLDLMADVVYCPRPCCQLPVMQEPGCTMGICSSCNFAFCTLCRLTYHGVSPCKVTAEKLMDLRNEYLQADEANKRLLDQRYGKRVIQKALEEMESKEWLEKNSKSCPCCGTPIEKLDGCNKMTCTGCMQYFCWICMGSLSRANPYKHFNDPGSPCFNRLFYAVDVDDDIWEDEVED

Tests used:
[1] = target: T1, PR; assay: PR transactivation reporter gene assay (Example 2); assay type: cell-based
Protocol: 12. […] PC-3 (A) or DU145 (B) cells were transfected with MMTV-CAT (2.5 μg), steroid receptor expression plasmid (AR, PR, or GR; 1.0 μg for PC-3 and 0.75 μg for DU145), and pSG5-C′-ARA54 (C′) or pSG5-mt-ARA54 (mt) (8.0 μg for PC-3 and 6.75 μg for DU145), with (for DU145) or without (for PC-3) pSG5-fl-ARA54 (2.25 μg). The total amount of DNA was adjusted to 12.5-13.25 μg with pSG5 for each transfection. […] The CAT activity is presented relative to that of vector alone with cognate ligand in each panel (black bars; set as 100%). Values represent the mean±SD of at least three determinations.
394. The human prostate cancer cell lines, LNCaP, PC-3, and DU145, were maintained in Dulbecco's minimum essential medium (DMEM) containing 5% fetal calf serum (FCS). Transfections using the calcium phosphate precipitation method and chloramphenicol acetyltransferase (CAT) and luciferase (Luc) assays were performed as previously described (Miyamoto et al. (1998) Proc. Natl. Acad. Sci. U.S.A. 95, 7379-7384; Yeh et al. (1999) Endocrine 11, 195-202; Miyamoto et al. (1998) Proc. Natl. Acad. Sci. U.S.A. 95, 11083-11088). Briefly, 1-4×10^5 cells were plated on 35-mm or 60-mm dishes 24 h before adding the precipitation mix containing a CAT or Luc reporter gene and a β-galactosidase expression plasmid (pCMV-β-gal) as an internal control for normalization of transfection efficiency. The medium was changed to phenol-red-free DMEM with 5% charcoal-stripped FCS 1 h before transfection. In each experiment, the total amount of transfected DNA per dish was maintained as a constant by addition of empty expression vector (pSG5 or pVP16, as appropriate). […] The cells were then harvested and whole cell extracts were used for CAT or Luc assay. The CAT activity was quantitated with a PhosphorImager (Molecular Dynamics). The Luc assay was determined using a Dual-Luciferase Reporter Assay System (Promega) and luminometer.

[2] = target: T2, ER; assay: ER transcription activity, ERE-CAT reporter (Example 1); assay type: cell-based; settings: DU145 cells
Protocol: 366. Human prostate cancer DU145 or PC3 cells, or human lung carcinoma cells NCI H1299 were grown in Dulbecco's minimal essential medium (DMEM) containing penicillin (25 U/ml), streptomycin (25˜g/ml), and 5% fetal calf serum (FCS). One hour before transfection, the medium was changed to DMEM with 5% charcoal-stripped FCS. Phenol red-free and serum-free media were used on the experiments employing E2 or TGF-β, respectively. A β-galactosidase expression plasmid, pCMV-β-gal, was used as an internal control for transfection efficiency.
367. Cells were transfected using the calcium phosphate technique (Yeh, et al. Molec. Endocrinol. 8:77-88, 1994). The medium was changed 24 hr posttransfection and the cells treated with either steroid hormones or hydroxyflutamide, and cultured for an additional 24 hr. Cells were harvested and assayed for CAT activity after the cell lysates were normalized by using β-galactosidaseas an internal control. Chloramphenicol acetyltransferase (CA) activity was visualized by PhosphorImager (Molecular Dynamics) and quantitated by ImageQuant software (Molecular Dynamics).

| Molecule | effect on fl-ARA54-induced PR transcription ([1]; DU145 cells) | effect on PR-mediated transactivation ([1]; PC-3 cell line, presence of P) | induction of PR transcription ([1]; DU145 cells, cotransfected with PR) | effect on ER transcription activity [2] |
| --- | --- | --- | --- | --- |
| B1 | little effect | only a marginal effect | – | – |
| B2 | – | – | 2.9 fold | less than 2 fold |
